From US20140087995A1 (published 2014)
Numbered stars: 1 amine (or outer) side, 2 acyl side, 3 side chain; on linkers, the order of the positions; unused ones are H or OH. Bridge positions count the residues as written; N and C are the ends. Side chains are listed from the residue outwards. Ends that are not written are not given here. * marks the point of attachment. C20 diacid = O=C(O)CCCCCCCCCCCCCCCCCCC(=O)*; γGlu = O=C(O)[C@H](CCC(=O)[*:2])N[*:1]

T1: human amylin receptor (amylin 3(a) receptor: human calcitonin receptor plus RAMP-3) (human, UniProt P30988 25-474; O60896 24-148)
T1 construct: whole, on cells; functional assay (II)a used the whole cells; also called hAmylin-R; hAmylinR
T1 sequence (looked up) 1: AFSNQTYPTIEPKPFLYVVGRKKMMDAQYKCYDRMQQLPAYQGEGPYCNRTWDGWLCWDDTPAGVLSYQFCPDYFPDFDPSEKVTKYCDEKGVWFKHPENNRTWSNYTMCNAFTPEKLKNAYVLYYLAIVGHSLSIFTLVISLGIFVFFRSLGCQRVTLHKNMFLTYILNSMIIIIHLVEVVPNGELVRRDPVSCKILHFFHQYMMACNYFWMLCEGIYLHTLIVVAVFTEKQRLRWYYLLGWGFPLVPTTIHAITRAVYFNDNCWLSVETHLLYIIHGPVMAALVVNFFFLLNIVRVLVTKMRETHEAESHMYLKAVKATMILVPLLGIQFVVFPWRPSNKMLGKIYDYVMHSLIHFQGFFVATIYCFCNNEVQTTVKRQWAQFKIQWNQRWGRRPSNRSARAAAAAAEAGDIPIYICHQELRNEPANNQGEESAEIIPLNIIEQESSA
T1 sequence (looked up) 2: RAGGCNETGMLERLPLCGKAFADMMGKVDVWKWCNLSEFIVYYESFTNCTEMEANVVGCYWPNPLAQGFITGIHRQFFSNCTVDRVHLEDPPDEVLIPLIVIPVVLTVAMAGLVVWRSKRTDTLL

T2: human calcitonin receptor (human, UniProt P30988 25-474)
T2 sequence (looked up): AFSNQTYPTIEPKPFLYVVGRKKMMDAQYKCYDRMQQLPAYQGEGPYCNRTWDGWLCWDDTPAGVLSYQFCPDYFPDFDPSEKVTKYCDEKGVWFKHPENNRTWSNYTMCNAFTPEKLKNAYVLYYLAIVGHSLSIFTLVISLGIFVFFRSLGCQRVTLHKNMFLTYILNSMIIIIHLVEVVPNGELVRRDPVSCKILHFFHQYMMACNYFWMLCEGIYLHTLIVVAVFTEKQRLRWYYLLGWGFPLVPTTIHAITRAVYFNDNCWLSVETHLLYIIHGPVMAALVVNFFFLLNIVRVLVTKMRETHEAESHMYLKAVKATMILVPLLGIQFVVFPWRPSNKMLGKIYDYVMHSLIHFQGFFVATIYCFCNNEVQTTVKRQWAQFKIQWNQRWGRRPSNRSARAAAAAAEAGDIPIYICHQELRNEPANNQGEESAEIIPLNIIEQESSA


Experiments:
[1] = target: T1, human amylin receptor (amylin 3(a) …); experiment: SPA competition binding, displacement of 125I-rat amylin, membranes of BHK amylin 3(a)/CRE-luc cells
Method in brief: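 SPA beads + BHK amylin 3(a)/CRE-luc membranes, 35 ng/μL final; buffer 50 mM Hepes pH 7.4, 1 mM CaCl2, 5 mM MgCl₂, 0.1% OA, 0.02% Tween20. 120 min, 25° C, shaken; scintillation count. IC₅₀ by one-site binding competition fit, taken as receptor affinity.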

[2] = target: T1, human amylin receptor (amylin 3(a) …); experiment: cell-based or functional assay
[3] = target: T2, human calcitonin receptor; experiment: cell-based or functional assay

IC50 [1] [nM] | hAmylin-R funct. EC50 (pM) [2] [pM] | hCTR funct. EC50 (pM) [3] [pM] | Ratio hCT/hAmylin funct. [2] | Binder
0.992 | 425 | 5580 | – | K([γGlu-C20 diacid])CNTATCATQRLAEFLRHSSPNFGAIPSSTNVGSHTY-NH2 (disulfide 2-7; N-terminus assumed; SMILES CC[C@H](C)[C@H](NC(=O)[C@H](C)NC(=O)CNC(=O)[C@H](Cc1ccccc1)NC(=O)[C@H](CC(N)=O)NC(=O)[C@@H]1CCCN1C(=O)[C@H](CO)NC(=O)[C@H](CO)NC(=O)[C@H](Cc1c[nH]cn1)NC(=O)[C@H](CCCNC(=N)N)NC(=O)[C@H](CC(C)C)NC(=O)[C@H](Cc1ccccc1)NC(=O)[C@H](CCC(=O)O)NC(=O)[C@H](C)NC(=O)[C@H](CC(C)C)NC(=O)[C@H](CCCNC(=N)N)NC(=O)[C@H](CCC(N)=O)NC(=O)[C@@H](NC(=O)[C@H](C)NC(=O)[C@@H]1CSSC[C@H](NC(=O)[C@@H](N)CCCCNC(=O)CC[C@H](NC(=O)CCCCCCCCCCCCCCCCCCC(=O)O)C(=O)O)C(=O)N[C@@H](CC(N)=O)C(=O)N[C@@H]([C@@H](C)O)C(=O)N[C@@H](C)C(=O)N[C@@H]([C@@H](C)O)C(=O)N1)[C@@H](C)O)C(=O)N1CCC[C@H]1C(=O)N[C@@H](CO)C(=O)N[C@@H](CO)C(=O)N[C@H](C(=O)N[C@@H](CC(N)=O)C(=O)N[C@H](C(=O)NCC(=O)N[C@@H](CO)C(=O)N[C@@H](Cc1c[nH]cn1)C(=O)N[C@H](C(=O)N[C@@H](Cc1ccc(O)cc1)C(N)=O)[C@@H](C)O)C(C)C)[C@@H](C)O)
0.172 | 159 | 843 | 5.3 | K([γGlu-γGlu-C20 diacid])CNTATCATQRLADFLRHSSPNFGAIPSSTNVGPETY-NH2 (disulfide 2-7)
0.14 | 161 | 841 | 5.2 | K([γGlu-C20 diacid])CNTATCATQRLAEFLRHSSPNFGAIPSSTNVGPETY-NH2 (disulfide 2-7; N-terminus assumed; SMILES CC[C@H](C)[C@H](NC(=O)[C@H](C)NC(=O)CNC(=O)[C@H](Cc1ccccc1)NC(=O)[C@H](CC(N)=O)NC(=O)[C@@H]1CCCN1C(=O)[C@H](CO)NC(=O)[C@H](CO)NC(=O)[C@H](Cc1c[nH]cn1)NC(=O)[C@H](CCCNC(=N)N)NC(=O)[C@H](CC(C)C)NC(=O)[C@H](Cc1ccccc1)NC(=O)[C@H](CCC(=O)O)NC(=O)[C@H](C)NC(=O)[C@H](CC(C)C)NC(=O)[C@H](CCCNC(=N)N)NC(=O)[C@H](CCC(N)=O)NC(=O)[C@@H](NC(=O)[C@H](C)NC(=O)[C@@H]1CSSC[C@H](NC(=O)[C@@H](N)CCCCNC(=O)CC[C@H](NC(=O)CCCCCCCCCCCCCCCCCCC(=O)O)C(=O)O)C(=O)N[C@@H](CC(N)=O)C(=O)N[C@@H]([C@@H](C)O)C(=O)N[C@@H](C)C(=O)N[C@@H]([C@@H](C)O)C(=O)N1)[C@@H](C)O)C(=O)N1CCC[C@H]1C(=O)N[C@@H](CO)C(=O)N[C@@H](CO)C(=O)N[C@H](C(=O)N[C@@H](CC(N)=O)C(=O)N[C@H](C(=O)NCC(=O)N1CCC[C@H]1C(=O)N[C@@H](CCC(=O)O)C(=O)N[C@H](C(=O)N[C@@H](Cc1ccc(O)cc1)C(N)=O)[C@@H](C)O)C(C)C)[C@@H](C)O)
0.957 | 703 | 7430 | – | K([γGlu-γGlu-C20 diacid])CNTATCATQRLAEFLRHSSPNFGAIPSSTNVGRETY-NH2 (disulfide 2-7; N-terminus assumed; SMILES CC[C@H](C)[C@H](NC(=O)[C@H](C)NC(=O)CNC(=O)[C@H](Cc1ccccc1)NC(=O)[C@H](CC(N)=O)NC(=O)[C@@H]1CCCN1C(=O)[C@H](CO)NC(=O)[C@H](CO)NC(=O)[C@H](Cc1c[nH]cn1)NC(=O)[C@H](CCCNC(=N)N)NC(=O)[C@H](CC(C)C)NC(=O)[C@H](Cc1ccccc1)NC(=O)[C@H](CCC(=O)O)NC(=O)[C@H](C)NC(=O)[C@H](CC(C)C)NC(=O)[C@H](CCCNC(=N)N)NC(=O)[C@H](CCC(N)=O)NC(=O)[C@@H](NC(=O)[C@H](C)NC(=O)[C@@H]1CSSC[C@H](NC(=O)[C@@H](N)CCCCNC(=O)CC[C@H](NC(=O)CC[C@H](NC(=O)CCCCCCCCCCCCCCCCCCC(=O)O)C(=O)O)C(=O)O)C(=O)N[C@@H](CC(N)=O)C(=O)N[C@@H]([C@@H](C)O)C(=O)N[C@@H](C)C(=O)N[C@@H]([C@@H](C)O)C(=O)N1)[C@@H](C)O)C(=O)N1CCC[C@H]1C(=O)N[C@@H](CO)C(=O)N[C@@H](CO)C(=O)N[C@H](C(=O)N[C@@H](CC(N)=O)C(=O)N[C@H](C(=O)NCC(=O)N[C@@H](CCCNC(=N)N)C(=O)N[C@@H](CCC(=O)O)C(=O)N[C@H](C(=O)N[C@@H](Cc1ccc(O)cc1)C(N)=O)[C@@H](C)O)C(C)C)[C@@H](C)O)
0.179 | 101 | 1450 | – | K([γGlu-C20 diacid])CNTATCATQRLAEFLRHSSPNFGAIPSSTNVGPHTY-NH2 (disulfide 2-7)
0.396 | 27 | 542 | 20.1 | K([γGlu-C20 diacid])CNTATCATQRLAHFLRHSSPNFGAIPSSTNVGSHTY-NH2 (disulfide 2-7; N-terminus assumed; SMILES CC[C@H](C)[C@H](NC(=O)[C@H](C)NC(=O)CNC(=O)[C@H](Cc1ccccc1)NC(=O)[C@H](CC(N)=O)NC(=O)[C@@H]1CCCN1C(=O)[C@H](CO)NC(=O)[C@H](CO)NC(=O)[C@H](Cc1c[nH]cn1)NC(=O)[C@H](CCCNC(=N)N)NC(=O)[C@H](CC(C)C)NC(=O)[C@H](Cc1ccccc1)NC(=O)[C@H](Cc1c[nH]cn1)NC(=O)[C@H](C)NC(=O)[C@H](CC(C)C)NC(=O)[C@H](CCCNC(=N)N)NC(=O)[C@H](CCC(N)=O)NC(=O)[C@@H](NC(=O)[C@H](C)NC(=O)[C@@H]1CSSC[C@H](NC(=O)[C@@H](N)CCCCNC(=O)CC[C@H](NC(=O)CCCCCCCCCCCCCCCCCCC(=O)O)C(=O)O)C(=O)N[C@@H](CC(N)=O)C(=O)N[C@@H]([C@@H](C)O)C(=O)N[C@@H](C)C(=O)N[C@@H]([C@@H](C)O)C(=O)N1)[C@@H](C)O)C(=O)N1CCC[C@H]1C(=O)N[C@@H](CO)C(=O)N[C@@H](CO)C(=O)N[C@H](C(=O)N[C@@H](CC(N)=O)C(=O)N[C@H](C(=O)NCC(=O)N[C@@H](CO)C(=O)N[C@@H](Cc1c[nH]cn1)C(=O)N[C@H](C(=O)N[C@@H](Cc1ccc(O)cc1)C(N)=O)[C@@H](C)O)C(C)C)[C@@H](C)O, also called compound 66)
0.525 | 445 | 7050 | – | K([γGlu-γGlu-C20 diacid])CNTATCATQRLAEFLRHSSPNFGAIPSSTNVGHETY-NH2 (disulfide 2-7; N-terminus assumed; SMILES CC[C@H](C)[C@H](NC(=O)[C@H](C)NC(=O)CNC(=O)[C@H](Cc1ccccc1)NC(=O)[C@H](CC(N)=O)NC(=O)[C@@H]1CCCN1C(=O)[C@H](CO)NC(=O)[C@H](CO)NC(=O)[C@H](Cc1c[nH]cn1)NC(=O)[C@H](CCCNC(=N)N)NC(=O)[C@H](CC(C)C)NC(=O)[C@H](Cc1ccccc1)NC(=O)[C@H](CCC(=O)O)NC(=O)[C@H](C)NC(=O)[C@H](CC(C)C)NC(=O)[C@H](CCCNC(=N)N)NC(=O)[C@H](CCC(N)=O)NC(=O)[C@@H](NC(=O)[C@H](C)NC(=O)[C@@H]1CSSC[C@H](NC(=O)[C@@H](N)CCCCNC(=O)CC[C@H](NC(=O)CC[C@H](NC(=O)CCCCCCCCCCCCCCCCCCC(=O)O)C(=O)O)C(=O)O)C(=O)N[C@@H](CC(N)=O)C(=O)N[C@@H]([C@@H](C)O)C(=O)N[C@@H](C)C(=O)N[C@@H]([C@@H](C)O)C(=O)N1)[C@@H](C)O)C(=O)N1CCC[C@H]1C(=O)N[C@@H](CO)C(=O)N[C@@H](CO)C(=O)N[C@H](C(=O)N[C@@H](CC(N)=O)C(=O)N[C@H](C(=O)NCC(=O)N[C@@H](Cc1c[nH]cn1)C(=O)N[C@@H](CCC(=O)O)C(=O)N[C@H](C(=O)N[C@@H](Cc1ccc(O)cc1)C(N)=O)[C@@H](C)O)C(C)C)[C@@H](C)O)
